The values below come from patent publication US20040258747A1 (G GASLINI CHILDREN S HOSPITAL, published 2004).

Ends that are not written are not given here.

For this experiment, the target named is T1, CD13 (aminopeptidase N) as expressed on THP-1 cells (human acute monocytic leukemia) (human, UniProt P15144 2-967).
T1 construct: whole, on cells; The CD13 form on THP-1 is recognised by WM15 but not by the NGR liposomes
As to the kind of experiment: FACS of doxorubicin fluorescence, THP-1 cells 1 h at 4 C.

T1 sequence (P15144 2-967): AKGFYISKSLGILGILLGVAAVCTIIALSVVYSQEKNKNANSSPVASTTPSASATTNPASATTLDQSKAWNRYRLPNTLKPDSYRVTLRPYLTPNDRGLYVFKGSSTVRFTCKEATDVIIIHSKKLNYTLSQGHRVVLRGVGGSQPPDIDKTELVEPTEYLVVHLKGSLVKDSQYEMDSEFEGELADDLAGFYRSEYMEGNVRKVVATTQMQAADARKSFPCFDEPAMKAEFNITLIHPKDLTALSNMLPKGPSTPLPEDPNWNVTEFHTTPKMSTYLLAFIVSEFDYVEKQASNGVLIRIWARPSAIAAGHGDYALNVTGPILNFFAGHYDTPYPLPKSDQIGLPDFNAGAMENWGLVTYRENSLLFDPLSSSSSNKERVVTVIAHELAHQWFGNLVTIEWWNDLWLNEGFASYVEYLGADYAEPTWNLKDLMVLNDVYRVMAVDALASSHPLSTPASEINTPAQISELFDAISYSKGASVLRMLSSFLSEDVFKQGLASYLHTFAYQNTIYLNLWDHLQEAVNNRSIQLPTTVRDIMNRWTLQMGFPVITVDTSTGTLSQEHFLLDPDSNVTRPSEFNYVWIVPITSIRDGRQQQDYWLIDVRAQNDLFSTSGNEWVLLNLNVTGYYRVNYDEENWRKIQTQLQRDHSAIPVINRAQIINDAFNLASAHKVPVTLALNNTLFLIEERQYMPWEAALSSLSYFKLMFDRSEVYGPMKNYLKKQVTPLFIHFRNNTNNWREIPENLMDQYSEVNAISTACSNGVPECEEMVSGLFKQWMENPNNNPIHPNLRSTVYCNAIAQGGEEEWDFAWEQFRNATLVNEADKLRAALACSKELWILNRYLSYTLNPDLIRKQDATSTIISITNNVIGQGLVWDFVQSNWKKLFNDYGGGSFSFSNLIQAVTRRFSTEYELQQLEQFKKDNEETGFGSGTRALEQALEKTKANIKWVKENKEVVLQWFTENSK

B1: ARA-targeted (sham-targeted) sterically stabilized liposomal doxorubicin (ARA-SL[DXR]): control peptide GARAGGVRSSSRTPSDKYC coupled to the liposome surface (peptide)
peptide: GARAGGVRSSSRTPSDKYC(PEG2000‑DSPE‑MAL (liposome))
modifications: not fully specified; also: on surface of doxorubicin-loaded sterically stabilized liposome
notes: Control formulation; Same liposome as NGR-SL[DXR], with NGR replaced by ARA in the peptide; also called mismatched peptide ARA
Turning to B1, the binding result is given as “no binding”.
